Measured values: patent US20240124865
Positions count from the first letter of the chain named. In names and notes the source's numbering stands.

T1: FRETS-VWF73 substrate (VWF fragment comprising VWFA2 domain residues 1596 to 1668)
T1 chain: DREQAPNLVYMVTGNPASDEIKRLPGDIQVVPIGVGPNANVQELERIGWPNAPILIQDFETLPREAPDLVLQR

B1: ADAMTS13 P1182K variant (Exemplified P1182K variant) (protein)
chain: AAGGILHLELLVAVGPDVFQAHQEDTERYVLTNLNIGAELLRDPSLGAQFRVHLVKMVILTEPEGAPNITANLTSSLLSVCGWSQTINPEDDTDPGHADLVLYITRFDLELPDGNRQVRGVTQLGGACSPTWSCLITEDTGFDLGVTIAHEIGHSFGLEHDGAPGSGCGPSGHVMASDGAAPRAGLAWSPCSRRQLLSLLSAGRARCVWDPPRPQPGSAGHPPDAQPGLYYSANEQCRVAFGPKAVACTFAREHLDMCQALSCHTDPLDQSSCSRLLVPLLDGTECGVEKWCSKGRCRSLVELTPIAAVHGRWSSWGPRSPCSRSCGGGVVTRRRQCNNPRPAFGGRACVGADLQAEMCNTQACEKTQLEFMSQQCARTDGQPLRSSPGGASFYHWGAAVPHSQGDALCRHMCRAIGESFIMKRGDSFLDGTRCMPSGPREDGTLSLCVSGSCRTFGCDGRMDSQQVWDRCQVCGGDNSTCSPRKGSFTAGRAREYVTFLTVTPNLTSVYIANHRPLFTHLAVRIGGRYVVAGKMSISPNTTYPSLLEDGRVEYRVALTEDRLPRLEEIRIWGPLQEDADIQVYRRYGEEYGNLTRPDITFTYFQPKPRQAWVWAAVRGPCSVSCGAGLRWVNYSCLDQARKELVETVQCQGSQQPPAWPEACVLEPCPPYWAVGDFGPCSASCGGGLRERPVRCVEAQGSLLKTLPPARCRAGAQQPAVALETCNPQPCPARWEVSEPSSCTSAGGAGLALENETCVPGADGLEAPVTEGPGSVDEKLPAPEPCVGMSCPPGWGHLDATSAGEKAPSPWGSIRTGAQAAHVWTPAAGSCSVSCGRGLMELRFLCMDSALRVPVQEELCGLASKPGSRREVCQAVPCPARWQYKLAACSVSCGRGVVRRILYCARAHGEDDGEEILLDTQCQGLPRPEPQEACSLEPCPPRWKVMSLGPCSASCGLGTARRSVACVQLDQGQDVEVDEAACAALVRPEASVPCLIADCTYRWHVGTWMECSVSCGDGIQRRRDTCLGPQAQAPVPADFCQHLPKPVTVRGCWAGPCVGQGTPSLVPHEEAAAPGRTTATPAGASLEWSQARGLLFSPAPQPRRLLPGKQENSVQSSACGRQHLEPTGTIDMRGPGQADCAVAIGRPLGEVVTLRVLESSLNCSAGDMLLLWGRLTWRKMCRKLLDMTFSSKTNTLVVRQRCGRPGGGVLLRYGSQLAPETFYRECDMQLFGPWGEIVSPSLSPATSNAGGCRLFINVAPHARIAIHALATNMGAGTEGANASYILIRDTHSLRTTAFHGQQVLYWESESSQAEMEFSEGFLKAQASLRGQYWTLQSWVPEMQDPQSWKGKEGTSRGPFEQKLISEEDLNMHTGHHHHHH
B2: Myc/His6-tagged ADAMTS13 P1182V variant (Exemplified P1182V variant) (protein)
chain: B1 chain with K1108V
B3: Myc/His6-tagged ADAMTS13 A1146V variant (Exemplified A1146V variant) (protein)
chain: B1 chain with A1072V, K1108P
B4: Myc/His6-tagged ADAMTS13 P1180V variant (Exemplified P1180V variant) (protein)
chain: B1 chain with P1106V, K1108P
B5: Myc/His6-tagged ADAMTS13 A1144V variant (Exemplified A1144V variant) (protein)
chain: B1 chain with A1070V, K1108P
B6: ADAMTS13 P1182I variant (Exemplified P1182I variant) (protein)
chain: B1 chain with K1108I
B7: Myc/His6-tagged recombinant wildtype human ADAMTS13 (Exemplified wildtype ADAMTS13) (protein)
chain: B1 chain with K1108P

Target: T1, FRETS-VWF73 substrate (VWF fragment …)

Protein | proteolytic activity, FRETS-VWF73 assay, fold increase | proteolytic activity, FRETS-VWF73 assay, absence of VWF-D4CK, fold over wildtype ADAMTS13 | proteolytic activity, FRETS-VWF73 assay, in the absence and in the presence of the activating VWF-D4CK fragment | proteolytic activity, FRETS-VWF73 assay, basal (no VWF-D4CK); reference for all other activities
B1 | Induces greater than 10-fold increase in activity | – | – | –
B2 | – | more than 4-fold higher than wildtype ADAMTS13 | displayed significantly higher proteolytic activity compared to wildtype ADAMTS13 and the R568K/F592Y/R660K/Y661F/Y665F variant | –
B3 | – | more than 4-fold higher than wildtype ADAMTS13 | displayed significantly higher proteolytic activity compared to wildtype ADAMTS13 and the R568K/F592Y/R660K/Y661F/Y665F variant | –
B4 | – | more than 4-fold higher than wildtype ADAMTS13 | displayed significantly higher proteolytic activity compared to wildtype ADAMTS13 and the R568K/F592Y/R660K/Y661F/Y665F variant | –
B5 | – | more than 4-fold higher than wildtype ADAMTS13 | displayed significantly higher proteolytic activity compared to wildtype ADAMTS13 and the R568K/F592Y/R660K/Y661F/Y665F variant | –
B6 | Induces greater than 10-fold increase in activity | – | – | –
B7 | – | – | – | All activities are presented relative to the basal activity of wtADAMTS13 (100%)
